Laboratory results as given in PMC8902820.

Assays:
FcγRIIB (SPR assay) = FcγRIIB (SPR assay) (UniProt P31994); assay: SPR; FcγRIIA, FcγRIIB, FcγRIIIA; KD determined by the analyte concentration at which half of the ligands are occupied at equilibrium
FcγRIIA H131 (SPR assay) = FcγRIIA H131 (SPR assay) (UniProt P12318); assay: as above
FcγRI (SPR assay) = FcγRI (SPR assay) (UniProt P12314); assay: SPR; FcγRI; KD calculated from the ratio of the kinetic constants (KD = koff/kon)
FcγRIIIA F158 = FcγRIIIA F158 (UniProt P08637); assay: SPR; FcγRIIA, FcγRIIB, FcγRIIIA; KD determined by the analyte concentration at which half of the ligands are occupied at equilibrium
Sequence of UniProt P08637 (P08637 17-254): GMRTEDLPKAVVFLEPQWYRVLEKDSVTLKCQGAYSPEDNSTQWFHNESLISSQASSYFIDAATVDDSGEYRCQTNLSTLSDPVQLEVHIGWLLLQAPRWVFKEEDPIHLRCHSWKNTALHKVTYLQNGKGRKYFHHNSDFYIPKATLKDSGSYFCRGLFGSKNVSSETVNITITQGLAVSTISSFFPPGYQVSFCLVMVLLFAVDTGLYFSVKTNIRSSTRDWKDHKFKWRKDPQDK

FcγRIIA R131 (SPR assay) = assay: as above
FcγRIIIA V158 = assay: as above

Sequence of UniProt P12314 (P12314 16-374): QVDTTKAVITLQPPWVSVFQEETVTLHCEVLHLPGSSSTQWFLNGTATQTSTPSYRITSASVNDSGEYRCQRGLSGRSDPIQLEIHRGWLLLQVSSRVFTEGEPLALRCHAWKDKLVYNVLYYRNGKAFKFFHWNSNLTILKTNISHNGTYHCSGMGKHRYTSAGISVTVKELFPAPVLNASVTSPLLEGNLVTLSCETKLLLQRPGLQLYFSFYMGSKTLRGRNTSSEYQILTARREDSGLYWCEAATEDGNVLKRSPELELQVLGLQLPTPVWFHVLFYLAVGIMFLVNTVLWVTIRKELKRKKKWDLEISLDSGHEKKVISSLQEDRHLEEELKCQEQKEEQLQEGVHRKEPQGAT
Sequence of UniProt P31994 (P31994 43-310): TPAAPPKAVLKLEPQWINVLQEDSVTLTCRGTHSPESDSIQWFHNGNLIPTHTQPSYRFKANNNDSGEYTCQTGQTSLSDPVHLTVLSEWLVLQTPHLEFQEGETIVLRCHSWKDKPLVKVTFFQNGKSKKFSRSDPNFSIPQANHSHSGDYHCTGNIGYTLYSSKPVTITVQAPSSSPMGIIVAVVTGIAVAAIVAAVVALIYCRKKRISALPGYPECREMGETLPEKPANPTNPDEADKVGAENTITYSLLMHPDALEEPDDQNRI
Sequence of UniProt P12318 (P12318 34-317): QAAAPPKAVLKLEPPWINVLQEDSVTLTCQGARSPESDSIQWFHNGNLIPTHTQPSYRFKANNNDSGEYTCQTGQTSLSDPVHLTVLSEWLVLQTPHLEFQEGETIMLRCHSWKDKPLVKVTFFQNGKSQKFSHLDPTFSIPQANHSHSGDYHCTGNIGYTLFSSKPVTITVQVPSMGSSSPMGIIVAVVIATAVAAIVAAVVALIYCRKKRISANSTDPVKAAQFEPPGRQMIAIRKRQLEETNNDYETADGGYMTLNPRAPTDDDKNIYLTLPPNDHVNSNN

Molecule | Kd (FcγRIIB (SPR assay)) [nM] | Kd (FcγRIIA H131 (SPR assay)) [nM] | Kd (FcγRI (SPR assay)) [nM] | Kd (FcγRIIIA F158) [nM] | Kd (FcγRIIA R131 (SPR assay)) [nM] | Kd (FcγRIIIA V158) [nM]
Ociperlimab (BGB-A1217), humanized IgG1 anti-human TIGIT antibody with wild-type IgG1 Fc | 2840 | 965 |  |  |  | 
Ociperlimab (BGB-A1217), humanized IgG1 anti-human TIGIT antibody with wild-type IgG1 Fc (antibody, V domains shown) VH: EVQLVESGGGLVQPGGSLRLSCAASGFTFSDYYMYWVRQAPGKGLEWVAYITKGGGSTYYPDSVKGRFTISRDNAKNTLYLQMNSLRAEDTAVYYCARQTNYDFTMDYWGQGTLVTVSS VL: EIVMTQSPATLSVSPGERATLSCKASQDVGTSVAWYQQKPGQAPRLLIYWASARHTGIPARFSGSGSGTEFTLTISSLQSEDFAVYYCQQYSSYPLTFGGGTKVEIK |  |  | 0.0406 | 2180 | 1020 | 555
